In the RNAGym collection of RNA variant scans (doi:10.1073/pnas.2313332121):

B1: TPR t1 (parent)
chain: GACCAAUCUGCCCUCAGAGCUCGAGAACAUCUUCGGAUGCAGAGGAGGCAGGCUUCGGUGGCGCGAUAGCGCCAACGUCCUCAACCUCCAAUGCAUCCCACCACAUGAUGAUGCCUGAAGAGCCUUGGUUUUUUG

Variants of: B1
Test: polymerase ribozyme fitness, log enrichment relative to wild type (log ratio); higher = more active; in vitro selection for triplet polymerase activity
Summary of the method: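 Fitness is a logarithmic measure of how a genotype enriched relative to the wild type, with replicate averages weighted by inverse variance. The logarithm uses base 2, and enrichment came from Illumina sequencing of input and output libraries. Those libraries were PCR-built, transcribed mutants of each subunit of a heterodimeric triplet polymerase ribozyme, passed through one triplicate in vitro selection round that included frozen incubation at −7 °C, gel excision of extended constructs and streptavidin-bead capture. Genotypes were kept only if they had ≥10 input reads and ≥1 read per output.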

Variant | polymerase ribozyme fitness (log ratio)
C13U G63A | -0.373
C8A C104U | 0.701
G57U G107U | -5.11
A41U C70U | -2.3
U21A C70A | -3.21
U9C C11U G60C G71U U133A | -4.61
G36U G61C | -2.58
A5U A6C G57U C123U | 0.75
A18U A37C C82G U92C U116A A121G | -5.42
A26G C124G | 0.285
G63A A105U U112A | -3.65
G42A A100C U112G | -4.73
U21A C22A A27C C89U C114U A121U | -3.32
C114A U133G | -1.84
U7A A27U A50U A74C C101U | -4.66
C11U U125G | -1.31
C8A C56A C72G | -1.07
U7A C73G C82G | -1.56
G63C A103G | -5.66
A43C G93C U130A | -3.38
G47U U116A | -3.64

Variant | polymerase ribozyme fitness (log ratio)
G48C C53U U54C U81A | -2.99
G60C G69U C80U | -5.8
C73A C85A G117A A119G U133C G135C | -0.124
C70U A95U C124A | -2.31
G39A A41G A83G C94A | -4.25
C86A C104A G120C U130A | -1.56
A43U A90C G110A A111G U132A | -0.915
A46C C53A G60U C102U | -3.11
U9G A103U | -4.16
G35U U67G U109A C115U | -7.12
C72U A100U A108G | -1.87
A16U A37U | -2.13
G45A C53G A83G G117A | -3.23
U14C G93A | -2.47
C22U C70A | -4.49
C20G A41U C56G G63C A95U A119U | -5.15
A83C G93A A111C G113U | -4.96
C4A A18C A43U C72A | -3.77
G19U U55C G61C | -4.04
G58C U59G C70A C86G | -2.75
A43C G60U U133G | -2

Variant | polymerase ribozyme fitness (log ratio)
A91C G113U | -3.8
C53A C56A G69U G127U | -1.27
G60A U81G A91G U116C | -7.03
G69U A119G G122C | -2.33
A16U G52U U78C A111C U126G G127U | -3.36
C79G U116A | -4.35
C12U C72U A83U C99U | -3.62
C15A C88G | -2.59
C114A G117C | -4.77
C8G A26G G57U A119G U130G | -0.722
G77A C79G A100U G113U C123G | -6.77
C98A A111U G122A C124G | -6.05
A46C U125A | -1.48
U21C A46G C53A C98U | -3.28
C8A G52C U81A | -2.06
C13U A46G | -1.03
G61U U81C C101G | -2.09
G42A C53U C88A C114A G127U | -5.52
C31U C40U G61U G120A | -4.29
U33G C73G G93U A121G | -5.53
C8U G19A A46U C73A G110U | -5.19

Variant | polymerase ribozyme fitness (log ratio)
C11A C12G C73A C104U G120A | -1.09
A2U C11U C79A C123A | -0.946
C28G C56A G110U C124U | -0.0721
C8G A16U C94A | -0.757
C11U U116C | -1.29
C28G U59A C89G A103G C104A U109G C123G U133A | -5.51
C12U G25C C94G G113A | -6.74
G61A C80G U109A G113U U133G | -5.53
C13G U96C | -2.28
C56U C72G C88A | -3.53
G63A U92A | -4.6
G39A G44U C86A A108U C115U G128U U130G | -6.8
G23U C53U | -5.67
G63A C99A A121C | -5.41
U38G C62U C86U C115A | -2.04
C11A U21C U112G | -0.593
A108U U112A | -4.85
A26G C73A A100U | -2.85
G17U G44A C62U A83U G117A | -5.24
G47U U54C C76A U92C | -5.69
C88G A91U U112A | -1.38
